Test results taken from patent US20130196383A1, “Method of Producing Dicer” (published 2013).
Blank lines part the entries; values can stand above or below the binder they belong to.

Legend:
[1] = biological target: T1, hDcr-CΔRBD fragment of human Dicer (Homo sapiens, UniProt Q9UPY3 SEQ:1235-1844); assay: filter; out of detectable limit; conditions: tags: expressed from pHMGWA-His6-MBP vector, E. coli
T1 chain: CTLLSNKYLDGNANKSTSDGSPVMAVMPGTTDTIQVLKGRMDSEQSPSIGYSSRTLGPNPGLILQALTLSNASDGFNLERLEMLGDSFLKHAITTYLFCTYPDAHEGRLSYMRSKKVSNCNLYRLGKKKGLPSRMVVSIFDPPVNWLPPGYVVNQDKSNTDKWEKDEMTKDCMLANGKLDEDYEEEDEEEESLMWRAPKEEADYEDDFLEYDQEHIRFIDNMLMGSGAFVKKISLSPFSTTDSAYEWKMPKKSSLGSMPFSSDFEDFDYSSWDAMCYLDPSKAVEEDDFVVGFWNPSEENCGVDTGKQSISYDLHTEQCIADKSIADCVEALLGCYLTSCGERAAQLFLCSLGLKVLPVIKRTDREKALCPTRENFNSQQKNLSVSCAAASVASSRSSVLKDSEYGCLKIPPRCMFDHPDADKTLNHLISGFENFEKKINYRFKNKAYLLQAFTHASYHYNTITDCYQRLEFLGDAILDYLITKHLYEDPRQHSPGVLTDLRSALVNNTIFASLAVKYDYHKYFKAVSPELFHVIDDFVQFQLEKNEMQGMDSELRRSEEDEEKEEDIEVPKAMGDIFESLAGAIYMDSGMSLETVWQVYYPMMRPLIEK
Experimental: (§1) Filter binding assays of hDcr and different hDcr fragments were performed in the same way as previously described (7). Briefly, serial dilutions of hDcr protein were incubated in a buffer containing 20 mM Tris-HCl (pH 7.5), 25 mM NaCl, 5 mM EDTA, 1 mM dithiothreitol (DTT), 1% glycerol and ˜0.5-1 nM (1500 CPM) of 5′-end ³²P-labeled duplex RNA substrate (one strand was labeled) at room temperature for 60 min in a 30 μl of total volume. Following incubation, a 25 μl aliquot of each reaction was applied to a dot-blot apparatus equipped with three membranes: Tuffryn, Protran and Nytran (from top to bottom). After drying, the bound (on Protran) or free (on Nytran) RNAs were quantified by a Phosphorimager (GE Healthcare). Percent bound RNA, calculated as the ratio of radioactivity detected on the Protran membrane over the total input radioactivity, was plotted as a function of protein concentration. Kd was determined by global fitting to the equation: kobsd=(kₘₐₓ[…]) (Kd+[Dicer])−1, where kobsd is the observed rate constant at a given protein concentration, kₘₐₓ is the maximal rate constant with saturating protein, and Kd is the protein concentration that provides half the maximal rate. Curve fitting was conducted with KaleidaGraph (Synergy Software, Reading, Pa.).
To establish the relationship between cleavage activity and substrate binding, nitrocellulose filter-binding assays were performed with three kinds of RNAs under non-cleavage conditions: substrate dsRNA ([…]), Dicer product-mimic dsRNA (19-bp) and a pre-miRNA (pre-hlet-7a-1).

[2] = biological target: T2, DP, tandem DUF283-PAZ domains of human Dicer (605-1068), bacterially expressed
T2 chain: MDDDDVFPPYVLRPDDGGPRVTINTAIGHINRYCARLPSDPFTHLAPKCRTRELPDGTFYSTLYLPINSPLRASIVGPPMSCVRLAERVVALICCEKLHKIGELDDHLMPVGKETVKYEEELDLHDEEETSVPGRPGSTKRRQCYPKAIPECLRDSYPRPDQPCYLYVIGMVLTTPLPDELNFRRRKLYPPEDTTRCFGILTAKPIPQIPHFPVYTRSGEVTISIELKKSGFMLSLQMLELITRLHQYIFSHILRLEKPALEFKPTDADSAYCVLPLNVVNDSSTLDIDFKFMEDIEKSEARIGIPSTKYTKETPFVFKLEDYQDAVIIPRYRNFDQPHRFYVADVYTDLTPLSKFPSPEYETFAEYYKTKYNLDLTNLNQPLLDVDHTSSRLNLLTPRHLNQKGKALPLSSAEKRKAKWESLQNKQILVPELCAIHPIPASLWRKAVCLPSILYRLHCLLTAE

[3] = biological target: T3, hDcr-N, N-terminal fragment of human Dicer (1-1068; ATPase/hel, DUF283 and PAZ domains), co-expressed in Sf9 … (human, UniProt Q9UPY3 1-1068); assay: co-expression in Sf9 cells, co-purification
T3 construct: Co-expressed with hDcr-C in baculovirus-infected Sf9 cells; It could not be expressed alone
T3 sequence: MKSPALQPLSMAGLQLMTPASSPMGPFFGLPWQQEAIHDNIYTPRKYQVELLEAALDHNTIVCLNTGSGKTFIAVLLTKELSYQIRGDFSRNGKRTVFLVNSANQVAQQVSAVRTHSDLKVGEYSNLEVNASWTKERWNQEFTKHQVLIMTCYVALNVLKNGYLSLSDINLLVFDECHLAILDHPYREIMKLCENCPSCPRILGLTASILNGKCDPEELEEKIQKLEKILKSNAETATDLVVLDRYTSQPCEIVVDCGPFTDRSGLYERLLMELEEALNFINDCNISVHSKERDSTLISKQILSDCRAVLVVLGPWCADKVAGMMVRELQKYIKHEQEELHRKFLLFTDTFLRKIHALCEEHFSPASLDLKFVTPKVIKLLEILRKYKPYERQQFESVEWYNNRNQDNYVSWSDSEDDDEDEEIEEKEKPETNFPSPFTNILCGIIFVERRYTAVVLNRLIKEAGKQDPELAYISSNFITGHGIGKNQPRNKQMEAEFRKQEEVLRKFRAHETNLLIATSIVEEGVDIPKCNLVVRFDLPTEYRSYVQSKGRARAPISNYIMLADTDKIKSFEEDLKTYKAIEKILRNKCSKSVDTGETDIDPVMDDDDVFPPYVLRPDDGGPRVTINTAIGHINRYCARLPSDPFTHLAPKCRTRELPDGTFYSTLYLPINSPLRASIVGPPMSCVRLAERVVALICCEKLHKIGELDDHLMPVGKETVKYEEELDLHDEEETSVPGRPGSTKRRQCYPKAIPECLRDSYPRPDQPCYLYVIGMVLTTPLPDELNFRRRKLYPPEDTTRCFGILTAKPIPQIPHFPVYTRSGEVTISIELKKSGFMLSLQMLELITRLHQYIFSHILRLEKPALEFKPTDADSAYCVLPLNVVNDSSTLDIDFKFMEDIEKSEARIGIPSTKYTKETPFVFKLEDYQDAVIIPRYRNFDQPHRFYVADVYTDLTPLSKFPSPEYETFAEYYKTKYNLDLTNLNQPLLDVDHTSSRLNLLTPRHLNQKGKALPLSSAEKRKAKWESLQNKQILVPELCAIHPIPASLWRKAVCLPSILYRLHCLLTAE

[4] = biological target: T4, hDcr-C (RNase IIIa/IIIb-dsRBD) fragment of human Dicer (Homo sapiens, UniProt Q9UPY3 SEQ:1235-1922); assay: filter; out of detectable limit; almost no binding; conditions: tags: expressed from pHMGWA-His6-MBP vector, E. coli; label: 5'-32P; hairpin pre-miRNA, 73 nt
T4 chain: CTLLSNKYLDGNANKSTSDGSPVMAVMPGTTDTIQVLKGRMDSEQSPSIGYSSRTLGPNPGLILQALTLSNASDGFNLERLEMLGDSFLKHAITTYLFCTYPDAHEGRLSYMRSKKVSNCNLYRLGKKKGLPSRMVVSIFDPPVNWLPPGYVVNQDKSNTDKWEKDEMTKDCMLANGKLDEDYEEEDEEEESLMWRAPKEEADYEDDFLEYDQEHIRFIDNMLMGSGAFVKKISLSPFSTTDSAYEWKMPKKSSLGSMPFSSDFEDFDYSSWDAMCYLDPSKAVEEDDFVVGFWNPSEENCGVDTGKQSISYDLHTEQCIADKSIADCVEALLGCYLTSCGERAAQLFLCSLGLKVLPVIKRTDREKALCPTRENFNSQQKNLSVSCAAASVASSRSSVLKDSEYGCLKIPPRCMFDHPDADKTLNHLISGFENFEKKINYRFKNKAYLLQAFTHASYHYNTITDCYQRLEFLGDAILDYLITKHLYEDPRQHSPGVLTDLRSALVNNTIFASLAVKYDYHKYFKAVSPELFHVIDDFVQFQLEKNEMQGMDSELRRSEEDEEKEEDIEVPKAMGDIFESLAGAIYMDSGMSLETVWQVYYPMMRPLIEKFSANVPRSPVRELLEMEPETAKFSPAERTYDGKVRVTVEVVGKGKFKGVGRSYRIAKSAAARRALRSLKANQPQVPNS
Experimental: as §1, with “Pa.). […]” for “Pa.).”

B1: 37ab (dsRNA)
RNA 1: UGAGGUAGUAGGUUGUAUAGUUUGAAAGUUCACGAUU
RNA 2: UCGUGAACUUUCAAACUAUACAACCUACUACCUCAUU
binding result ([1]; label: 5'-32P on one strand (37a), perfectly matched 35-bp duplex): no binding

binding result [3]: binds
B2: hDcr-C, C-terminal fragment of human Dicer (1235-1922; two RNase III domains and C-terminal dsRBD), co-expressed in Sf9 cells (enzyme)
chain: CTLLSNKYLDGNANKSTSDGSPVMAVMPGTTDTIQVLKGRMDSEQSPSIGYSSRTLGPNPGLILQALTLSNASDGFNLERLEMLGDSFLKHAITTYLFCTYPDAHEGRLSYMRSKKVSNCNLYRLGKKKGLPSRMVVSIFDPPVNWLPPGYVVNQDKSNTDKWEKDEMTKDCMLANGKLDEDYEEEDEEEESLMWRAPKEEADYEDDFLEYDQEHIRFIDNMLMGSGAFVKKISLSPFSTTDSAYEWKMPKKSSLGSMPFSSDFEDFDYSSWDAMCYLDPSKAVEEDDFVVGFWNPSEENCGVDTGKQSISYDLHTEQCIADKSIADCVEALLGCYLTSCGERAAQLFLCSLGLKVLPVIKRTDREKALCPTRENFNSQQKNLSVSCAAASVASSRSSVLKDSEYGCLKIPPRCMFDHPDADKTLNHLISGFENFEKKINYRFKNKAYLLQAFTHASYHYNTITDCYQRLEFLGDAILDYLITKHLYEDPRQHSPGVLTDLRSALVNNTIFASLAVKYDYHKYFKAVSPELFHVIDDFVQFQLEKNEMQGMDSELRRSEEDEEKEEDIEVPKAMGDIFESLAGAIYMDSGMSLETVWQVYYPMMRPLIEKFSANVPRSPVRELLEMEPETAKFSPAERTYDGKVRVTVEVVGKGKFKGVGRSYRIAKSAAARRALRSLKANQPQVPNS
RNA cleavage assay (37ab dsRNA), size pattern of the products [2]: addition of the DP polypeptide to the hDcr-C cleavage reaction led to RNA products similar to those produced by full-length Dicer

B3: pre-hlet-7a-1 (ssRNA)
RNA: UGAGGUAGUAGGUUGUAUAGUUUUAGGGUCACACCCACCACUGGGAGAUAACUAUACAAUCUACUGUCUUACC
binding result [4]: no binding
binding result ([1]; label: 5'-32P, hairpin pre-miRNA, 73 nt): no binding
